These results are taken from PMC9366794 (ACS Omega, 2022).

Ends that are not written are not given here.

Experiment [1] deals with MC4R KO mice. The conditions noted are these: MC4R KO mice (intact MC3R); cited from earlier work.
Experiment [2] deals with mouse melanocortin-3 receptor (mouse) (UniProt P33033).
For experiment [3], the target named is mouse melanocortin-4 receptor (mouse) (UniProt P56450).
The target in experiment [4] is mouse melanocortin-1 receptor (mouse) (UniProt Q01727).
The target of experiment [5] is mouse melanocortin-5 receptor (mouse) (UniProt P41149).
In experiment [6] the test system is wildtype, MC4R KO, and MC3R KO mice. The conditions noted are these: significant out to at least 7 days post-administration; cited from earlier work.
The test system of experiment [7] is male mice. The settings on record: icv, 5 μg, at 4, 6, and 24 h; cited from earlier work.

UniProt Q01727, sequence (Q01727 whole entry): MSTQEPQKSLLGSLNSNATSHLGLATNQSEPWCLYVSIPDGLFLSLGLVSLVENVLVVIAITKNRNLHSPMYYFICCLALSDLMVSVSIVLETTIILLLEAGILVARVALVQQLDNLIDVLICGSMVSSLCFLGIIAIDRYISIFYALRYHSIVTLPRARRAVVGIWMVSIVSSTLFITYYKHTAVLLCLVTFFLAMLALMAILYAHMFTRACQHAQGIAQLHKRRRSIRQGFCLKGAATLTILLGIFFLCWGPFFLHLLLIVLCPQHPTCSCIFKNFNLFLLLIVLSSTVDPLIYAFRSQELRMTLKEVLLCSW
UniProt P33033, sequence (P33033 whole entry): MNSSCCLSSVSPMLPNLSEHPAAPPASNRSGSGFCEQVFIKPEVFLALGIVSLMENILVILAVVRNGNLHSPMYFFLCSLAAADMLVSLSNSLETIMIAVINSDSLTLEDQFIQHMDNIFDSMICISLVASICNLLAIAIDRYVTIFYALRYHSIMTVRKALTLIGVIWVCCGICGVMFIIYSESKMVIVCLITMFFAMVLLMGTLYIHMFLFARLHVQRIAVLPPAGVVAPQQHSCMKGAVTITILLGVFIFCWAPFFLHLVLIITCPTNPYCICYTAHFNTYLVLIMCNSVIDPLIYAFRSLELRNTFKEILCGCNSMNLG
UniProt P41149, sequence (P41149 whole entry): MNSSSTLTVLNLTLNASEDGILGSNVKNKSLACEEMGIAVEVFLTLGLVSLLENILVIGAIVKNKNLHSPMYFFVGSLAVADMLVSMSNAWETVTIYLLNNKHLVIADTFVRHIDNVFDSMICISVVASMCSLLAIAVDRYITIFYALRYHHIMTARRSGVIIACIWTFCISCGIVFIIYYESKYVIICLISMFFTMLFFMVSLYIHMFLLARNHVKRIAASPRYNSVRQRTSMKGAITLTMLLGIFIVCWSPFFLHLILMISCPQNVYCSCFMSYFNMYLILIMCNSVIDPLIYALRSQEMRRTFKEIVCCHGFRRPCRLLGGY
UniProt P56450, sequence (P56450 whole entry): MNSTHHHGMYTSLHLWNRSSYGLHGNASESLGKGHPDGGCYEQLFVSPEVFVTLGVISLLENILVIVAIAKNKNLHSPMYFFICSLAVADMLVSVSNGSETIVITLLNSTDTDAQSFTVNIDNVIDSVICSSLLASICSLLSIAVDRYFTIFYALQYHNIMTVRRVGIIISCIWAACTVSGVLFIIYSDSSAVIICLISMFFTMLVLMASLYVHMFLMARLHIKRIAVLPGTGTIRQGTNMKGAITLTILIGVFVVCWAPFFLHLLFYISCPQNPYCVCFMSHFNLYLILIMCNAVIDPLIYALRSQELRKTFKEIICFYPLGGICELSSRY

MTII: the “food intake in MC4R KO mice” value in experiment [1] is on record as “decrease in food intake”.

Ac-His-DPhe-Arg-Trp-NH2: the “food intake in MC4R KO mice” value in experiment [1] was “decrease in food intake”.

NDP-MSH (peptide): the agonist EC50, cAMP AlphaScreen, HEK293 cells stably expressing mMC3R in experiment [2] worked out at 0.16 nM. Also, the agonist EC50, cAMP AlphaScreen, HEK293 cells stably expressing mMC4R in experiment [3] is 0.68 nM. The same compound registered an agonist EC50, cAMP AlphaScreen, HEK293 cells stably expressing mMC1R in experiment [4] of 0.013 nM. In addition, the agonist EC50, cAMP AlphaScreen, HEK293 cells stably expressing mMC5R in experiment [5] was found to be 0.26 nM. For the compound “AGRP: naturally occurring MC3R/MC4R antagonist agouti-related protein (SSRRCVRLHESCLGQQVPCCDPCATCYCRFFNAFCYCRKLGTAMNPCSRT; ends and bridges not checked; cysteine pairing not given here; UniProt O00253 83-132, looked up)”, in experiment [6], the “food intake compared to saline injection” value is “dose-dependent increase in food intake”. As to Ac-Arg-Arg-(pI)DPhe-Wrf-NH2 (peptide), the agonist EC50, cAMP AlphaScreen, HEK293 cells stably expressing mMC3R in experiment [2] worked out at 570 nM. The compound also came in with an agonist EC50, cAMP AlphaScreen, HEK293 cells stably expressing mMC1R in experiment [4] of 380 nM. The same compound gave an agonist EC50, cAMP AlphaScreen, HEK293 cells stably expressing mMC5R in experiment [5] of 240 nM.

As for `CC(=O)N[C@@H](CCCNC(=N)N)C(=O)N[C@@H](CCCNC(=N)N)C(=O)N[C@H](Cc1ccc(I)cc1)C(=O)N1Cc2ccccc2C[C@H]1C(N)=O` [compound 1, Ac-Arg-Arg-(pI)DPhe-Tic-NH2], in experiment [7], the “food intake versus artificial cerebrospinal fluid vehicle” value is on record as “statistically significant increase in food intake”. Ac-Arg-Arg-(pI)DPhe-Tic-NH2 (peptide) yielded an agonist EC50, cAMP AlphaScreen, HEK293 cells stably expressing mMC3R in experiment [2] of 10 nM. For the same compound, the agonist EC50, cAMP AlphaScreen, HEK293 cells stably expressing mMC1R in experiment [4] is 0.18 nM. For the same compound, in experiment [5], the agonist EC50, cAMP AlphaScreen, HEK293 cells stably expressing mMC5R was 7 nM. Ac-Arg-Arg-wsf-Tic-NH2 (peptide): the agonist EC50, cAMP AlphaScreen, HEK293 cells stably expressing mMC5R in experiment [5] was determined as 350 nM. In experiment [4], Ac-Arg-Arg-(pI)DPhe-wsf-NH2 (peptide) gave an agonist EC50, cAMP AlphaScreen, HEK293 cells stably expressing mMC1R of 210 nM. Moreover, the agonist EC50, cAMP AlphaScreen, HEK293 cells stably expressing mMC5R in experiment [5] is 650 nM.
